According to article doi:10.1101/2020.04.27.064493 (bioRxiv, 2020):

B1: bovine DNMT1 RFTS domain (residues 349-594) (domain or fragment)
chain: PKCTECLQYLDDPELRYEQHPPDAVEEIQILTNERLSIFDANESGFESYEDLPQHKLTCFSVYCKRGHLCPIDTGLIEKDVELLFSGSAKPIYEDDPSPEGGINGKNFGPINEWWIAGFDGGEKALLGFSTSFAEYILMDPSPEYAPLFSVMQEKIYISKIVVEFLQSNPDSTYEDLINKIETTVPPCMLNLNRFTEDSLLRHAQFVVEQVESYDRAGDSDEQPIFLSPCMRDLIKLAGVTLGKRR

What was measured:
G76C-mutated ubiquitin = G76C-mutated ubiquitin (UniProt P0CG48 1-76, G76C); assay: crystal structure
[1] = biological target: B1; assay: crystal structure

binding result (G76C-mutated ubiquitin) | binding result [1] | Binder
binds |  | B1
binds | binds | H3_(1-24)K9me3/K18C/K23C peptide (trimethyl-lysine at K9) peptide: not shown
